Paper PMC5341729 (Molecular Biology of the Cell, 2017)

B1: CHD4(561-936)^PREY (domain or fragment)
chain: QVMFRNYQRKNDMDEPPSGDFGGDEEKSRKRKNKDPKFAEMEERFYRYGIKPEWMMIHRILNHSVDKKGHVHYLIKWRDLPYDQASWESEDVEIQDYDLFKQSYWNHRELMRGEEGRPGKKLKKVKLRKLERPPETPTVDPTVKYERQPEYLDATGGTLHPYQMEGLNWLRFSWAQGTDTILADEMGLGKTVQTAVFLYSLYKEGHSKGPFLVSAPLSTIINWEREFEMWAPDMYVVTYVGDKDSRAIIRENEFSFEDNAIRGGKKASRMKKEASVKFHVLLTSYELITIDMAILGSIDWACLIVDEAHRLKNNQSKFFRVLNGYSLQHKLLLTGTPLQNNLEELFHLLNFLTPERFHNLEGFLEEFADIAKEDQI
B2: mCherry-MYRIP (MYO7A-Rab interacting protein), MYRIP^PREY (natural protein)
chain: MGRKLDLSGLTDDETEHVLQVVQRDFNLRKKEEERLSELKQKLDEEGSKCSILSKHQQFVEHCCMRCCSPFTFLVNTKRQCGDCKFNVCKSCCSYQKHEKAWVCCVCQQARLLRAQSLEWFYNNVKSRFKRFGSAKVLKNLYRKHRLESGACFDILGGSLFESNLENEGSISGSDSTFYRQSEGHSVMDTLAVALRVAEEAIEEAISKAEAYGDSLDKQNEASYLRDHKEELTEELATTILQKIIRKQKSKSEQQVEEEPGWPHPQSCSTKVADEGTSASPGGYRAPAALWRSQSAFSITGEEALKTPPVEAPSRQPRDQGQHPRAESALPSWKSVDRLDETNLAPVLQSPDGNWVALKDGAPPPTRLLAKPKSGTFQALEVASSVASAYDEMGSDSEEDFDWSEALSKLCPRSRALPRNPQPQPTQAQSSDQGPIAASPSSALSPNPEAMCSDSETSSAGSSREVGHQARLSWLQRKAPRNPAAEKMRLHGELDVNFNPQLASRETSDSSEPEEAPHTTDRRARRWRRARLGSEEPSKEPSSPSAQLRDLDTHQVSDDLSETDISNEARDPQTLTDTTEEKRRNRLYELAMKMSEKETSSGEDQESEPKTESENQKESLSSEDNSQSVQEELKKKFSAVSLCNISTEVLKVINATEELIAGSTGPWESPQVPPDRQKGMFPRGTDQVRLDEQLTSLEENVYLAAGTVYGLETQLTELEDAARCIHSGTDETHLADLEDQVATAAAQVHHAELQISDIESRISALTIAGLNIAPCVRFTRRRDQKQRTQVQTIDTSRQQRRKLPAPPVKAEKIETSSVTTIKTFNHNFILQGSSTNRTKERKGTTKDLMEPALESAVMY

What was measured:
[1] = target: T1, MYO10-TPRN^BAIT (taperin fused to MYO10^HMM) (mouse, UniProt A2AI08 1-749); test: NanoSPD
T1 sequence: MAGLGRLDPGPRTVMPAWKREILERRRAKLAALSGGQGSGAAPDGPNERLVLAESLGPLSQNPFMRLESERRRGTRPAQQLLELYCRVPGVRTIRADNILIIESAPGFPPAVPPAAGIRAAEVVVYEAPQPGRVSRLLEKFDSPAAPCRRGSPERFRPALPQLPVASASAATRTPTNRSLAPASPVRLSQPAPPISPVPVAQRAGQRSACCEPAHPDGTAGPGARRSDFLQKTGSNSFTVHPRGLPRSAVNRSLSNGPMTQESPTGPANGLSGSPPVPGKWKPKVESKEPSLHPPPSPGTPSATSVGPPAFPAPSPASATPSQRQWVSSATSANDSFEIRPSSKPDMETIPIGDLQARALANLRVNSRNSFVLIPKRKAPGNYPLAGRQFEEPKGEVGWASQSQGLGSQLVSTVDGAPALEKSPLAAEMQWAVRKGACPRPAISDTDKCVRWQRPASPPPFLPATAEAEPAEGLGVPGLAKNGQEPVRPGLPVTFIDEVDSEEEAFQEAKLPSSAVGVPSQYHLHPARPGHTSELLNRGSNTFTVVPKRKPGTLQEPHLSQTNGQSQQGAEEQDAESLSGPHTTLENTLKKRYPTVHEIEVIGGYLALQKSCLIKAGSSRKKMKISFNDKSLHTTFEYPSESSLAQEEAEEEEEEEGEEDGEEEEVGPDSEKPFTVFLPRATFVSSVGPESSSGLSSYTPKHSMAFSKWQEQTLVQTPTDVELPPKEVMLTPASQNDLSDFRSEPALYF

[2] = target: T2, MYO10-MYO7A(TAIL)^BAIT (EGFP-MYO10^HMM fused to the tail domain of MYO7A) (UniProt Q13402 858-2215); test: NanoSPD
T2 sequence: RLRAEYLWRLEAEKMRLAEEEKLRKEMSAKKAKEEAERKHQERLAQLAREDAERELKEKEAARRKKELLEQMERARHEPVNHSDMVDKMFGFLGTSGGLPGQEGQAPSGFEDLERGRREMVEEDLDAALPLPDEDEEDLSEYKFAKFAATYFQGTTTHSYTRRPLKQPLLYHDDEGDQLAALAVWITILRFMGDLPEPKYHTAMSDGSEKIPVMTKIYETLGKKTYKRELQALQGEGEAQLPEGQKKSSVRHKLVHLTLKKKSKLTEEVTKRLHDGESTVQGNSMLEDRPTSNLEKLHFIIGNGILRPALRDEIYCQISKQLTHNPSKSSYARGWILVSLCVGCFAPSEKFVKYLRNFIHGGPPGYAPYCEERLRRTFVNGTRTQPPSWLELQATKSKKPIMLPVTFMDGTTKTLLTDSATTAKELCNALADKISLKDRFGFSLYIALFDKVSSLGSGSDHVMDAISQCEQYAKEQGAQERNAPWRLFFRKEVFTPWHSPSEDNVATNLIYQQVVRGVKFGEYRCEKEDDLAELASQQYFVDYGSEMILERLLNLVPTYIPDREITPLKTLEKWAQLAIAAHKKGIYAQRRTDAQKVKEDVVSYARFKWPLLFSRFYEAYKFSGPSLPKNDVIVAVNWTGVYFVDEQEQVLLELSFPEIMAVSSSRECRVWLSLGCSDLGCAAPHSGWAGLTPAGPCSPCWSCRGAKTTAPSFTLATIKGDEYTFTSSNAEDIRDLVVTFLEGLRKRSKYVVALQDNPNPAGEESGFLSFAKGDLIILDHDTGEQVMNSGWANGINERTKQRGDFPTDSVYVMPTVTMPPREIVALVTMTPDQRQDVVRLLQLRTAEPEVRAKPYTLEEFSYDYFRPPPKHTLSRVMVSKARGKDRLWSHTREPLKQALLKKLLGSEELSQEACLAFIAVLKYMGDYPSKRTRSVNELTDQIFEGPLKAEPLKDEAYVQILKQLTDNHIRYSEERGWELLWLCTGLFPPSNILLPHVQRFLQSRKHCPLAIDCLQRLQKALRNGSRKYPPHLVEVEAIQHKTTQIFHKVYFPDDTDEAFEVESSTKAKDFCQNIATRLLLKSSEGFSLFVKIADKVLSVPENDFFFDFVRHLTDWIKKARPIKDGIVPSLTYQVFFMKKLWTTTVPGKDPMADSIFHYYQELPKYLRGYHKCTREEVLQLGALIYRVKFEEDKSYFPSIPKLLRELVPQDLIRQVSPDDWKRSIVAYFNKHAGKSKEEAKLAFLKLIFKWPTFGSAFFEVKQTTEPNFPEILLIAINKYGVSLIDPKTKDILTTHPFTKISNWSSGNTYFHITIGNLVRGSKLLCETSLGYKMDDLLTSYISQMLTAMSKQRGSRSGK

| Binder | fold increase of prey fluorescence at filopodial tips against MYO10^(NO BAIT) [1] | fold increase of prey fluorescence at filopodial tips against MYO10^(NO BAIT) [2] |
| --- | --- | --- |
| B1 | 7 fold |  |
| B2 |  | 11.8 fold |
